To fix the notation:
B1: Azoarcus group I ribozyme (parent)
chain: GUGCCUUGCGCCGGGAAACCACGCAAGGGAUGGUGUCAAAUUCGGCGAAACCUAAGCGCCCGCCCGGGCGUAUGGCAACGCCGAGCCAAGCUUCGGCGCCUGCGCCGAUGAAGGUGUAGAGACUAGACGGCACCCACCUAAGGCAAACGCUAUGGUGAAGGCAUAGUCCAGGGAGUGGCGAAAGUCACACAAACCGG

This note sets out measurements from the RNAGym collection of RNA variant scans (doi:10.1093/molbev/msab373).

Variants of B1 are the subject of the data set. The experiment in a line: reverse-splicing fitness (ratio to wild type); higher = more active; in vitro selection; Mg2+ level not given. Put shortly:
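An in vitro group I ribozyme library with randomized positions was T7-transcribed and gel-purified. In triplicate, 10 pmol RNA in EPPS pH 7.5 was reacted with 50 pmoles of a 30-nt RNA substrate for 1 h at 37 °C across several added MgCl2 levels (1–48 mM), then stopped with EDTA. Products were reverse transcribed from a substrate-complementary primer, PCR-amplified and sequenced (HiSeq 4000). Fitness is a variant's read proportion after selection over that before, normalised to wild type.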
As for C82U A111U A120G A145G C150A C169G U176G, the reverse-splicing fitness worked out at 0.00481.

C82A A111U A120G A145U C150G C169G U176A: the reverse-splicing fitness worked out at 0.00656.

Regarding A120C A145U C150U C169G U176A, the reverse-splicing fitness stood at 0.0111.

In the case of A111G A120U A145G C150A C169U U176C, the reverse-splicing fitness turned out to be 0.00673.

As to C82G A111U A120U A145G C169G U176G, the reverse-splicing fitness came to 0.00172.

For C82G A111C A120G C150U C169U U176A, the reverse-splicing fitness turned out to be 0.0146.

For C82G A111G A120G A145G C150U U176C, the reverse-splicing fitness turned out to be 0.0189.

As to C82G A111G A145U C150G U176G, the reverse-splicing fitness stood at 0.00715.

As for C82G A111C A120C A145C U176A, the reverse-splicing fitness was found to be 0.0166.

For C82A A111U A145U C150U C169U, the reverse-splicing fitness was 0.0124.

In the case of C82A A111G A120U U176C, the reverse-splicing fitness amounted to 0.0161.

On to C82A A111G A120G A145U C169G, for which the reverse-splicing fitness turned out to be 0.0112.

For A111U A145C C150U C169U U176C, the reverse-splicing fitness came to 0.0152.

Turning to C82G A111G A120C A145C C150G C169G, the reverse-splicing fitness was 0.00805.

On to C82G A111G A145C C150U U176A, for which the reverse-splicing fitness worked out at 0.0557.

As for C82U A120G A145G C150U C169U, the reverse-splicing fitness came out at 0.0183.

On to A120U A145G C150A C169U U176A, for which the reverse-splicing fitness was determined as 0.0235.

As to C82U A111C A120G C150A C169A, the reverse-splicing fitness amounted to 0.0101.

Turning to A120G A145U C150U C169U U176G, the reverse-splicing fitness was 0.0135.

Consider C82U A111C A120U A145U C169G U176A, for which the reverse-splicing fitness amounted to 0.00259.

In the case of C82U A120G A145U C150G C169A U176C, the reverse-splicing fitness came to 0.00949.

On to A111G A120G A145U C150A C169G U176A, for which the reverse-splicing fitness turned out to be 0.0201.

Consider C82A A111G A120G A145U C150U U176G, for which the reverse-splicing fitness was determined as 0.00595.

Consider A111U A145C C150A C169A U176A, for which the reverse-splicing fitness was 0.0128.

For C82A A111G A120G A145C C150A U176C, the reverse-splicing fitness was 0.00922.

For A111G A120G C169U U176C, the reverse-splicing fitness is 0.0969.

Take C82U A111C A120G U176G: the reverse-splicing fitness was determined as 0.00514.

In the case of C82G A111G A120U A145C C150A U176A, the reverse-splicing fitness was determined as 0.00245.

For the variant C82G A111G A120U C150U C169A U176G, the reverse-splicing fitness stood at 0.00204.

Take A111U C150A C169U U176A: the reverse-splicing fitness turned out to be 0.0201.

C82U A111U A120U A145G C150G: the reverse-splicing fitness came out at 0.00817.

As to A111U A145C C150A C169U U176A, the reverse-splicing fitness came out at 0.0157.

Consider C82A A111U A120G A145G C150G U176A, for which the reverse-splicing fitness stood at 0.00704.

Consider C82G A111U C150G C169U U176A, for which the reverse-splicing fitness amounted to 0.00863.

As to C82A A111C A120G C150U C169U U176G, the reverse-splicing fitness stood at 0.00631.

In the case of C82U A111G A120G A145U C169A U176C, the reverse-splicing fitness came out at 0.00896.

For C82U A120C A145U C150U C169U, the reverse-splicing fitness worked out at 0.0166.

Consider C82A A111C A120G A145U C150A U176G, for which the reverse-splicing fitness stood at 0.00589.

Regarding C82U A111C A120C A145G C150G C169U U176G, the reverse-splicing fitness was 0.007.

Take C82U A111U A145G C169U U176A: the reverse-splicing fitness is 0.0135.

For C82G A111C A120C A145U C150U U176A, the reverse-splicing fitness was determined as 0.0132.

For C82G A120U A145C C150G C169A U176G, the reverse-splicing fitness came to 0.00165.

Consider A111G A120C A145G C150U C169U U176C, for which the reverse-splicing fitness was found to be 0.0607.

In the case of C82U A111U A120G A145G C150A C169U U176C, the reverse-splicing fitness came out at 0.0157.

With C82A A111C A120G A145G C150G C169A U176A, the reverse-splicing fitness amounted to 0.0133.

For C82U A111U A120C A145U C150G C169U U176A, the reverse-splicing fitness was 0.00894.

In the case of A111C A120U A145C C150G C169G, the reverse-splicing fitness came to 0.00714.

In the case of C82U A120U C150G C169U U176C, the reverse-splicing fitness came out at 0.00349.

Take C82G A111G A120U A145C C169G: the reverse-splicing fitness was found to be 0.00347.

As to A111C A120C C150U U176C, the reverse-splicing fitness was 0.153.

Take C82A A111C A120C C150A C169A U176C: the reverse-splicing fitness came to 0.0181.

Consider C82G A111C C150U C169G U176G, for which the reverse-splicing fitness is 0.00784.

As to C82A A111C A120G A145U C150U C169G, the reverse-splicing fitness amounted to 0.00909.

For the variant C82A A111C A120C A145G C150G C169A U176G, the reverse-splicing fitness came out at 0.00798.

As to C82G A111C A120G A145U C169U, the reverse-splicing fitness is 0.0104.

As for C82A A111C A120C A145U C150U C169G U176A, the reverse-splicing fitness turned out to be 0.0127.

Take C82G A120G A145U C150G C169G U176C: the reverse-splicing fitness worked out at 0.00564.

As for A111U A120C A145U C169U U176A, the reverse-splicing fitness stood at 0.0319.

On to A111G C150A C169U U176A, for which the reverse-splicing fitness was found to be 0.0199.

With C82G A111U A120C A145U C150A C169G U176A, the reverse-splicing fitness stood at 0.0207.

A111U A120C A145G C169U: the reverse-splicing fitness was 0.172.

Turning to C82U A111C A120G A145G C150G C169G U176A, the reverse-splicing fitness worked out at 0.00921.

On to C82A A111U A120G A145G C169A, for which the reverse-splicing fitness was determined as 0.00997.

For C82G A111U A120C C150U C169G U176C, the reverse-splicing fitness was 0.0194.

Turning to C82A A120C A145G C150U C169U U176C, the reverse-splicing fitness amounted to 0.0136.

As for C82A A111G A120C C150G U176G, the reverse-splicing fitness came to 0.00391.

As for A111C A120U A145U C150G C169G, the reverse-splicing fitness came to 0.00663.

On to C82U A120C A145U C150U C169U U176C, for which the reverse-splicing fitness stood at 0.0144.

In the case of C82G A111U A145G C150G C169G, the reverse-splicing fitness was found to be 0.00715.

Take C82U A111U A145G C150A C169A U176C: the reverse-splicing fitness turned out to be 0.0216.

As for C82G A111G A120G C150G U176C, the reverse-splicing fitness worked out at 0.0157.

For C82G A111U C150G C169A U176A, the reverse-splicing fitness is 0.011.

Regarding C82G A111G A120U A145U C169G U176C, the reverse-splicing fitness was determined as 0.00235.

For C82U A111G A145C C150U C169U U176A, the reverse-splicing fitness was found to be 0.0119.

Consider C82U A111G A120G A145C C169G, for which the reverse-splicing fitness stood at 0.0123.

On to C82G A111C A120U A145G C150U C169U U176G, for which the reverse-splicing fitness was found to be 0.00262.

For the variant A111G A145C C150G C169U U176A, the reverse-splicing fitness came out at 0.00841.

As to A120C A145C C150U C169U U176C, the reverse-splicing fitness was determined as 0.0863.

Take C82A A111G A120U C150G C169A: the reverse-splicing fitness amounted to 0.00678.

Turning to C82G A111U A120C A145G C150G C169A U176G, the reverse-splicing fitness worked out at 0.0104.

Regarding C82A A111G A145G C150G U176G, the reverse-splicing fitness was determined as 0.00721.

Take C82G A120G A145C C150G: the reverse-splicing fitness was 0.00798.

On to C82G A111U A145G C150U C169U, for which the reverse-splicing fitness came to 0.0119.

Turning to C82U A111G A145U C169G U176A, the reverse-splicing fitness stood at 0.00999.
